PMC11505474, “Functional Characterization of the Ciliate Stylonychia lemnae Serotonin N-Acetyltransferase, a Pivotal Enzyme in Melatonin Biosynthesis and Its Overexpression Leads to Peroxidizing Herbicide Tolerance in Rice” (Antioxidants, 2024)

Legend:
COc1ccc2[nH]cc(CCN)c2c1 = test: purified protein; details: acetyl-CoA 0.5 mM co-substrate, 100 mM potassium phosphate, pH 8.8 (or varying pH), 55 °C (general assay)
NCCc1c[nH]c2ccc(O)cc12 = test: purified protein; details: acetyl-CoA 0.5 mM co-substrate, 100 mM potassium phosphate, pH 8.8 (or varying pH), 55 °C (general assay)

## SlSNAT (Stylonychia lemnae serotonin N-acetyltransferase) (Stylonychia lemnae)
COc1ccc2[nH]cc(CCN)c2c1
  Km: 246 µM
NCCc1c[nH]c2ccc(O)cc12
  Km: 776 µM
